From patent publication US20100260763A1 (DOMANTIS, published 2010)

Assays:
[1] = target: T1, human TNFR1, soluble recombinant protein (human, UniProt P19438 22-211, limits assumed, biotinylated in the BIAcore assays (coupling via primary amines)); experiment: phage ELISA, plate coated with 1 nM TNFR1, anti-M13-HRP; trypsin 0 µg/ml; phage input 4.51E+10
T1 construct: also called biotinylated TNFR1; human recombinant E. coli-expressed human TNFR1
T1 sequence (looked up): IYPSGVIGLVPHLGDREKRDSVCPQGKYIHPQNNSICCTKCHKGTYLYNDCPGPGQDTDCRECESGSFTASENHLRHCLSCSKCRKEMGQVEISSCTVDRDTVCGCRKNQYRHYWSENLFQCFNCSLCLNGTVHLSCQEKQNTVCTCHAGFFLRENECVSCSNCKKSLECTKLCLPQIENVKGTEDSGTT

[2] = target: T1, human TNFR1, soluble recombinant protein; experiment: phage ELISA, plate coated with 1 nM TNFR1, anti-M13-HRP; trypsin 0 µg/ml; phage input 2.82E+09
[3] = target: T1, human TNFR1, soluble recombinant protein; experiment: phage ELISA, plate coated with 1 nM TNFR1, anti-M13-HRP; trypsin 10 µg/ml 1 h room temp; phage input 1.13E+10
[4] = target: T1, human TNFR1, soluble recombinant protein; experiment: phage ELISA, plate coated with 1 nM TNFR1, anti-M13-HRP; trypsin 0 µg/ml; phage input 1.41E+09
[5] = target: T1, human TNFR1, soluble recombinant protein; experiment: phage ELISA, plate coated with 1 nM TNFR1, anti-M13-HRP; trypsin 1 mg/ml 1 h room temp; phage input 3.52E+08
[6] = target: T1, human TNFR1, soluble recombinant protein; experiment: phage ELISA, plate coated with 1 nM TNFR1, anti-M13-HRP; trypsin 10 µg/ml 1 h room temp; phage input 4.51E+10
[7] = target: T1, human TNFR1, soluble recombinant protein; experiment: phage ELISA, plate coated with 1 nM TNFR1, anti-M13-HRP; trypsin 0 µg/ml; phage input 1.13E+10
[8] = target: T1, human TNFR1, soluble recombinant protein; experiment: phage ELISA, plate coated with 1 nM TNFR1, anti-M13-HRP; trypsin 1 mg/ml 1 h room temp; phage input 4.51E+10
[9] = target: T1, human TNFR1, soluble recombinant protein; experiment: phage ELISA, plate coated with 1 nM TNFR1, anti-M13-HRP; trypsin 100 µg/ml 1 h room temp; phage input 1.13E+10
[10] = target: T1, human TNFR1, soluble recombinant protein; experiment: phage ELISA, plate coated with 1 nM TNFR1, anti-M13-HRP; trypsin 100 µg/ml 1 h room temp; phage input 4.51E+10
[11] = target: T1, human TNFR1, soluble recombinant protein; experiment: phage ELISA, plate coated with 1 nM TNFR1, anti-M13-HRP; trypsin 1 mg/ml 1 h room temp; phage input 1.13E+10
[12] = target: T1, human TNFR1, soluble recombinant protein; experiment: phage ELISA, plate coated with 1 nM TNFR1, anti-M13-HRP; trypsin 0 µg/ml; phage input 5.64E+09

DOM1h-131 displayed on phage
phage ELISA read-out [1]: 0.916 | phage ELISA read-out [2]: 0.946 | phage ELISA read-out [3]: 0.86 | phage ELISA read-out [4]: 0.85 | phage ELISA read-out [5]: 0.08 | phage ELISA read-out [6]: 0.784 | phage ELISA read-out [7]: 0.949 | phage ELISA read-out [8]: 0.284 | phage ELISA read-out [9]: 0.284 | phage ELISA read-out [10]: 0.418 | phage ELISA read-out [11]: 0.183 | phage ELISA read-out [12]: 0.962
